Test [1] addresses TycB1(S5Bpa)-His6, TycB1[COM^A-C-A-PCP] with p-benzoylphenylalanine at Ser5 (construct 25), holo-form. In words: cross-linking.
In test [2] the target is TycB1-His6, TycB1[COM^A-C-A-PCP] (construct 17), holo-form.

This is an account of results in article doi:10.1101/2025.06.08.658476.

“SBP-TycA with the single V1059 in the seam region deleted (construct 23), holo-form (enzyme)” showed a T-crosslink intensity relative to WT TycA in test [1] of 33%.
Same read-out and setting: to “SBP-TycA P1063A, mutation in the lid (construct 24), holo-form (enzyme)” belongs 46%.
As for “SBP-TycA ΔV1059 to K1069, seam and lid deletion mutant (construct 19), holo-form (enzyme)”, in test [1], the L-crosslink intensity relative to WT TycA came out at 38% and the T-crosslink intensity relative to WT TycA amounted to 5%. The substance also displayed a D-Phe-L-Pro-DKP production with TycB1, normalised to wild-type TycA in test [2] of 9%.
